Reference: patent US20250011397A1 (HOSPITAL FOR SICK CHILDREN, published 2025)

Tests used:
mouse FcγRI = target: T1, mouse FcγRI (mouse, UniProt P26151 25-297)
T1 sequence (looked up): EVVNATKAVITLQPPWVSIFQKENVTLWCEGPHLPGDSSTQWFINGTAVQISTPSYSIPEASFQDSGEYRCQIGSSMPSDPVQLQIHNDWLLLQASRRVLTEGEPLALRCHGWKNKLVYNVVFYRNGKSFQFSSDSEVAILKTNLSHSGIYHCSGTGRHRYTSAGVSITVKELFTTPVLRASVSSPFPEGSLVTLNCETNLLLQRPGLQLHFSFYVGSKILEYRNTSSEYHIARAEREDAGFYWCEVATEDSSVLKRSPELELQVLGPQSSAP

mouse FcRn [1] = target: T2, mouse FcRn (mouse, UniProt Q61559 22-297; P01887 21-119)
T2 sequence (looked up) 1: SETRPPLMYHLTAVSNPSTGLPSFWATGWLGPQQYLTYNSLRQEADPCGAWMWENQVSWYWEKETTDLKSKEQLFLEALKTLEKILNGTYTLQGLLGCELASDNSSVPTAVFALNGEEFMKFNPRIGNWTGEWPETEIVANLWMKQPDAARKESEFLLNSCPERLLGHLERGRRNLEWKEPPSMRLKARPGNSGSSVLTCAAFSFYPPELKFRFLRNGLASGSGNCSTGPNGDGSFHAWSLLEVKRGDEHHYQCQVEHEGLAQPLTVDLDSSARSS
T2 sequence (looked up) 2: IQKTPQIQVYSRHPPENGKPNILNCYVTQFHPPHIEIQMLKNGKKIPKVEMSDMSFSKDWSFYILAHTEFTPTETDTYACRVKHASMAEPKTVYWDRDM

mouse FcRn [2] = target: T2, mouse FcRn; experiment: pH 5.6

B1: HD37 (anti-hCD19) mouse IgG2a, parental IgG (antibody)
chain: DILLTQTPASLAVSLGQRATISCKASQSVDYDGDSYLNWYQQIPGQPPKLLIYDASNLVSGIPPRFSGSGSGTDFTLNIHPVEKVDAATYHCQQSTEDPWTFGGGTKLEIKRADAAPTVSIFPPSSEQLTSGGASVVCFLNNFYPKDINVKWKIDGSERQNGVLNSWTDQDSKDSTYSMSSTLTLTKDEYERHNSYTCEATHKTSTSPIVKSFNRNECGGSSGSGSGSTGTSSSGTGTSAGTTGTSASTSGSGSGGGGGSGGGGSAGGTATAGASSGSGSSGSSSSGGTGTGQVQLQQSGAELVRPGSSVKISCKASGYAFSSYWMNWVKQRPGQGLEWIGQIWPGDGDTNYNGKFKGKATLTADESSSTAYMQLSSLASEDSAVYFCARRETTTVGRYYYAMDYWGQGTSVTVSSSQSFPNVFPLVSCESPLSDKNLVAMGCLARDFLPSTISFTWNYQNNTEVIQGIRTFPTLRTGGKYLATSQVLLSPKSILEGSDEYLVCKIHYGGKNRDLHVPIPSKPCPPCKCPAPNLLGGPSVFIFPPKIKDVLMISLSPIVTCVVVDVSEDDPDVQISWFVNNVEVHTAQTQTHREDYNSTLRVVSALPIQHQDWMSGKEFKCKVNNKDLPAPIERTISKPKGSVRAPQVYVLPPPEEEMTKKQVTLTCMVTDFMPEDIYVEWTNNGKTELNYKNTEPVLDSDGSYFMYSKLRVEKKNWVERNSYSCSVVHEGLHNHHTTKSFSRTPGK
notes: also called mIgG2a control; HD37 single chain IgG2a
Work on B1 yielded a Kd (mouse FcγRI) of 8.63 nM, a koff (mouse FcγRI) of 0.000451 s⁻¹ and a kon (mouse FcγRI) of 52200 M⁻¹ s⁻¹. For the same binder, the kon (mouse FcRn [1]) was 116000 M⁻¹ s⁻¹, the Kd (mouse FcRn [2]) was 1.06 nM and the koff (mouse FcRn [2]) was 0.000123 s⁻¹.
